From article PMC5207070, “The Amino-terminal Domain of the Androgen Receptor Co-opts Extracellular Signal-regulated Kinase (ERK) Docking Sites in ELK1 Protein to Induce Sustained Gene Activation That Supports Prostate Cancer Cell Growth*^([image sbox.jpg])” (The Journal of Biological Chemistry, 2016)

Target: T1, purified full-length human AR (Abcam ab82609) (human, UniProt P10275 1-920)
T1 construct: androgen receptor, human, full length; also called Purified AR; AR polypeptide (ligand)
T1 sequence (looked up): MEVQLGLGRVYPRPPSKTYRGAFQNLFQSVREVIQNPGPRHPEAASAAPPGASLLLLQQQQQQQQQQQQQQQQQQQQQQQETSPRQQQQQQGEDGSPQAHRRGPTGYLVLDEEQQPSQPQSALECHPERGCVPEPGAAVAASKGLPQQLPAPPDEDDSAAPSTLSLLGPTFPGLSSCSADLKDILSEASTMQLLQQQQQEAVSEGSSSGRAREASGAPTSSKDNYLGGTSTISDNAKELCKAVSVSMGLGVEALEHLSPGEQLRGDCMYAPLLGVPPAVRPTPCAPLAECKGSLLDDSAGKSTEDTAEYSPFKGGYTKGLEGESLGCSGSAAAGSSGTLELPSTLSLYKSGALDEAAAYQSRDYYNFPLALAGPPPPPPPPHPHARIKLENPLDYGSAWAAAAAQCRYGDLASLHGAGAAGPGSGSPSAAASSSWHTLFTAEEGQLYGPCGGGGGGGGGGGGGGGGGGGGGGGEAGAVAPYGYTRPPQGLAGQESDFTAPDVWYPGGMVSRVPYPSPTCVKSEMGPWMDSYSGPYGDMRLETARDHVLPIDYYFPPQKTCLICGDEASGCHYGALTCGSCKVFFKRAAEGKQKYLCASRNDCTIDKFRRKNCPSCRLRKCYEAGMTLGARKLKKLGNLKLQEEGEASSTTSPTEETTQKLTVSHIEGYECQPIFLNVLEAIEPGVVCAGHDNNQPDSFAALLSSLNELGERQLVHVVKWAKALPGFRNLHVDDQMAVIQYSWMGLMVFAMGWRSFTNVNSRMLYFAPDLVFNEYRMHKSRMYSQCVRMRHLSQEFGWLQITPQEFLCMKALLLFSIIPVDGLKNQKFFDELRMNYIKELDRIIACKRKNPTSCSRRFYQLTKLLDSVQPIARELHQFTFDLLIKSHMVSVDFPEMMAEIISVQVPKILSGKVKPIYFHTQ
Test: SPR; BIAcore 3000; AR immobilised on a CM5 chip by amine coupling; His-ELK1 (0-160 nM) or mutant ELK1 (100 nM) as analyte; HBS-N buffer; 1:1 Langmuir model; Kd = koff/kon
Conditions: both partners purified

- Kd: 19 nM
B1: His-tagged ELK1 (natural protein, human, UniProt P19419 1-428, looked up)
chain: MDPSVTLWQFLLQLLREQGNGHIISWTSRDGGEFKLVDAEEVARLWGLRKNKTNMNYDKLSRALRYYYDKNIIRKVSGQKFVYKFVSYPEVAGCSTEDCPPQPEVSVTSTMPNVAPAAIHAAPGDTVSGKPGTPKGAGMAGPGGLARSSRNEYMRSGLYSTFTIQSLQPQPPPHPRPAVVLPSAAPAGAAAPPSGSRSTSPSPLEACLEAEEAGLPLQVILTPPEAPNLKSEELNVEPGLGRALPPEVKVEGPKEELEVAGERGFVPETTKAEPEVPPQEGVPARLPAVVMDTAGQAGGHAASSPEISQPQKGRKPRDLELPLSPSLLGGPGPERTPGSGSGSGLQAPGPALTPSLLPTHTLTPVLLTPSSLPPSIHFWSTLSPIAPRSPAKLSFQFPSSGSAQVHIPSISVDGLSTPVVLSPGPQKP
notes: ELK1, recombinant; Construct details are in the supplemental material; also called purified ELK1
